From a protein production outcome set (Wang et al. 2014)

assay: label from the status in PepcDB records
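Also: failed if final PepcDB status was selected cloned or expressed and not failed if soluble or beyond.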

Sequence | protein production
MKKTGWGILGAVAAFTGYAYWSTKHLTVTDYEILSDKIPAEWDGATFVQLSDLHSASFGLYNNPLLSIVNELAPDAVFLTGDMIDGDESPFVTMAVVRKLAKEFPVFYVSGNHEGRSAFYEDFKADMEKHHVAVLENERYFLRKDGAAIMVAGVKDPRFVRDDWAEKELPKQVWEEEALKEALDEATANLSPDYFTILLAHRPEFWPLYQAYPVDLVLSGHAHGGQFRLPLTEGLFAPGQGFMPKWTAGLHSAGGKSLIVSRGLGNVTKLPRLFNDPEIIRITLKAKGDARENLEHHHHHH | failed
MKKTLIALMLGTISFTTFANDYLPSGGYETLETRSGQLTFENGFEHGVPTNKTSQKLFDELDYQRAVQGYIWATPIVSFYKWKNDHYQTWGTENGQLVYQAGYESKLGGLTYNTSTPYLIGYMNLNNGPIVINLPDTQLRGAVHNMWQIGKEQMTKPGKYVIYKAGDVAPKVKGATLIAMDTNDFFFGVRLMNKDAKVRSTMMNSIQKGITDINGNQLTNKGIYHVKRGIDHKQPRGMEFWEVVNQAIQANPVQERDRMMMDMLRPLGIEKGKPFIPTPKQQSLLKEAAIVGEAMTKNIDFNKTGRLDHAEYGPKGNPWEIATASTPNQDRNNGMDLDGRAAWFYEAVTNDIAMHGMDNGGWGQVYLDNYYSGEKDHGLDGGKHYTLTIKNPNTYADLFWTITVYNVENRAIIENDLGRADVGSNIKGSVYNKDGSITLHFSPKKPKGVAEANWVQTNEKEGWFVYFRAYSPKKAFVDEEPKTLLPNFEEVK | failed
MKKTRRILLGLALIIGLSVGAGCRSTASKSKTANASQSATTRTVTDMAGTKVKIPTKVTRVADLWHANNQVVLLLGGQKKLVATTQMIKQSPWFKTIDPGISRVTAPFAGDDLQTEELLKAKPDVVIAADTAQVKQARKAKIPTINAMYQTFAGLRQSVNLTAQVLGGTAPKIAKAYQKTLTTNLNDVKNRLKDVTFKPKVLHFVNATNLNQVDGTGTIVNEWIKAAGGQNALKQKGNMISVTTETLAKSDPDVIIVGSATTAEARAALKKNAVLSKLTAVKKNRVYGNPQGTFPWDRYSAEEALQVLWAAKKLHPDQFQDLNMVAKTKAFYQQFYHYQLSTAQANRLLNGASSPK | failed
MKKVCLSLLMGLMVQMTFGQTLEKMQWFNEPEQWEIKNNVLSMSVTPQSDYWRISHYGFTVDDAPFYYATYGGEFEAKVKVVGEYKERFDQAGLMLRIDHENYIKAGIEFVDGKFNLSTVVTHKTSDWSVITLDKTVPYIWIKAVRRLDAVEIFYSFDDKTYTLMRNAWLQDHIPVKVGLMAACPDGSGFNAKFEYFQVKHLPDQRRVEWLKKNAELEHHHHHH | failed
MKKVIGAATATVFGLGAFTTTATAETIVTADVLNVREKPTTESKVVEKVKNGEELKVINTEDGWSKIELNGKEVFVSSEFTKDIYHVTADLLNVRSESNTESKILGRLKKDDVIESTNQVKDGWLQFEYKGKTAYVNVSFLSSKAPIEKKADEKTKQVAKVQKSVKAKEEAKTQKITKAKETIKPKEEVKVQEVAKPKEEVKVQEVAKPKEEVKVQEVAKPKEEVKVQEVVKPKEEVKVQEVVKPKEEVKVQEVAKAKEEAKVQEIAKAKEEAKAQEIAKAKEEAKAQEIAKAKEEAKAQEIAKAKEEAKAQEIAKAKEEAKAQEIAKAKEEAKAQEIAKAKEEAKAQEIAKAKEEAKAQEIAKAKEEAKAQEIAKAKEEAKEREIAKAKEEAKAREIAKAKEEEKAREALKAKEESKNNVQSAKRELTVVATAYTADPSENGTYGGRVLTAMGHDLTANPNMRIIAVDPKVIPLGSKVWVEGYGEAIAGDTGSAIKGNRIDVLMGSKSKAMNWGRQTVKVKILLEHHHHHH | failed
MKKWFPALLFSLCVSGESSAWNHNIVFYSLGNVNSYQGGNVVITQRPQFITSWRPGIATVTWNQCNGPEFADGSWAYYREYIAWVVFPKKVMTQNGYPLFIEVHNKGSWSEENTGDNDSYFFLKGYKWDERAFDAGNLCQKPGETTRLTEKFDDIIFKVALPADLPLGDYSVTIPYTSGIQRHFASYLGARFKIPYNVAKTLPRENEMLFLFKNIGGCRPSAQSLEIKHGDLSINSANNHYAAQTLSVSCDVPANIRFMLLRNTTPTYSHGKKFSVGLGHGWDSIVSVNGVDTGETTMRWYKAGTQNLTIGSRLYGESSKIQPGVLSGSATLLMILP | failed
MKLAKLIPKRFFIRSKDRSTVSKSPTAFSFGSASSSSGQDCKNSGGDGGGGSVTPTSILPEVPSPYSYVEILQAFKLIDRDNDGAVSRHDLESLLSRLGPDPLTEEEINVMLKEVDCDGDGTIRLEELASRVVSLDPARDSTELKETFEFFDADRDGLISADELLRVFSTIGDERCTLDDCKRMIADVDEDGDGFVCFTEFSRMMDLQR | failed
MKLALITDTSAYLPEAIENHEDVYVLDIPIIIDGKTYIEGQNLTLDQYYDKLAASKELPKTSQPSLAELDDLLCQLEKEGYTHVLGLFIAAGISGFWQNIQFLIEEHPNLTIAFPDTKITSAPQGNLVRNALMCSREGMDFDVIVNKIQSQIEKIEGFIVVNDLNHLVKGGRLSNGSAIIGNLLSIKPVLHFNEEGKIVVYEKVRTEKKALKRLAEIVKEMTADGEYDIAIIHSRAQDKAEQLYNLLAKAGLKDDLEIVSFGGVIATHLGEGAVAFGITPKN | not failed
MKLDDLNLFRLVVENGSYTATSRKTMIPVATITRRIQALEDSVNLRLLNRHARKLSLTEAGERFYHECSPLLQRLTSTAEEITDDCRGASGKIKISAPYNLTKRMMMPMFNDFMKKYPDINIELTTENNADQLDPTEWDVIFRVGPQRDSSLIARKIGEVKDILVASQDYLAANPAPNHAEELSNHSLLKGYPLIKWTLINSKGESVVNVERGRFQANALNVVRSACSEGLGITLMPDVMIKEYIESGELLRVLPDWSANPRDIYMLYNHKDHLPEKVRLFIDFVIAYNIH | failed
MKLDWNGIDTVLLDMDGTLLDRHFDDHFWLEHVPKRYAAQNGIPLDEAKKLLYALFRSQERTLNWTDLDYWSERLGLDIPVLKQEIDHLIAVHPGVVEFLVFLRRHGKQAWLVTNAHGKTLSLKMRKTRLGPYFTGIISAHDLGLPKEDVRFWEKLQERVPYEPSRTLLGEDSETNLGTAEEYGIAHLIYVSRYSSTVTPTASDRYASIHYFTQLIPAAHTDET | failed
MKLEIGYNHPFEIRKERYESDHVCNFSVLYISDLHLTVFSKDICTRLSKCIQELNPTIIILGGDYIDCRNGWDYLSTFFKFLSARKNVFSIAGNHDYFYGIDEIKKLIESNNIHWLENQSAVVNIQEYNILLTGNNETQSSIPADFNILCLHKPVSLDAFKIPYHIAFAGHLHGCQCVFWQNENGLYPGRFFYTFNFLRRQVKNCLYLISKGLGDTLPIRFNCKKDIIFVEIKNNSNKLEHHHHHH | failed
MKLERILPFSKTLIKQHITPESIVVDATCGNGNDTLFLAEQVPEGHVYGFDIQDLALENTRDKVKDFNHVSLIKDGHENIEHHINDAHKGHIDAAIFNLGYLPKGDKSIVTKPDTTIQAINSLLSLMSIEGIIVLVIYHGHSEGQIEKHALLDYLSTLDQKHAQVLQYQFLNQRNHAPFICAIEKIS | failed
MKLHLTNLYGMAGDSTVILAQNAVQKIASQLGFREVGIYFYNIASDSPSEMNKRLDGIMASISIGDILVFQSPTWNGFEFDRLLFDKLKDMQVKIICFIHDVVPLMFDSNYYLMKDYLYMYNLSDVLIVPSERMKTRLMEEGLTTKKILVQGMWDHPHDLSLYTPAFKKELFFAGSLERFPDLQNWSQDTPLRVFSNKGEASSSARSLSIEGWKKDEELLLELSKGGFGLVWGTHQNEGESNQYYTLNISHKVSTYLTAGIPVIVPSSLSTAKFIVDQGLGFMADSLEEVHEIVDKMNLQEYQEMTNRIKTFSYLLKEGYFTKKLLVDAIYHLGID | failed
MKLIKFVRNVVLFILTAIFLAFMLLVSYCMPHYSAAVISGVEVKRMNENENTPNNKEVKTLARDVYFVQTYDPKDQKSVTVYRNEDTRFSFPFYFKFNSADISALAQSLINQQVEVKYYGWRINLFNMFPNVIFLKPLKESTDISKPIFSWILYALLLMGFFISARSVCTLFKSKAH | failed
MKLIKTIDAVGQVLCHDITQIIPGEFKGRKFKKGHIVKEEDIPVLLSLGKDNLYVWEKSEGMVHENEGALFLKELTAGENLDFSEIKEGKIDFIAACDGLLKIDVDALFDLNCVGEIMMATLHNNFIVNKGLKVAGTRVIPLVIDEKKLEDAKKVVGNRKIVNVVPFKPKKVGIVTTGNEVFYSRIVDKFGPVIEEKVKGFGCEVIGQTICPDDKEIIKSAIKEFISQGAELICCTGGMSVDPDDVTPTAIKETGADLVTYGSPILPGAMFLLAYYGEVPIMGIPGCAMYHKTTVFDIVLSRVLIDEKLDKYDIARYGHGGLCMNCDVCTYPACNFAKILEHHHHHH | failed
